Results on three substances are retold here after publication PMC9473612.

The experiment has as its target EB1-mScarlet (UniProt Q9XZ57). In words: co-immunoprecipitation (mNeongreen-trap) with immunoblot quantification. The following applies: S2 cells overexpressing the constructs; n = 3 independent replicates; parent: est. 100; read off a plot. (In general: In western blotting, separated proteins are transferred to a membrane and probed.)
Chain of UniProt Q9XZ57 (Q9XZ57 entry or part of it): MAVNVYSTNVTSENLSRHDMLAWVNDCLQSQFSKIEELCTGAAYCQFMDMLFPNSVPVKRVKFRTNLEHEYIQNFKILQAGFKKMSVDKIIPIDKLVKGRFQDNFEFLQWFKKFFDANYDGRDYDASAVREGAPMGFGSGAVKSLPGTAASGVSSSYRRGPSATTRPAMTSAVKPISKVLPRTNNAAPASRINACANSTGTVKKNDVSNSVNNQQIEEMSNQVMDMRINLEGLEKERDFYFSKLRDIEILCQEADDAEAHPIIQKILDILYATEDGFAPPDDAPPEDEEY
Turning to “mNeongreen RhoGEF2 (1–619), wild type 7A (seven serines proximal to the SKIP motif changed to A; residue numbers not printed)”, the percent of parent (% relative to WT) is 76.

On to “mNeongreen RhoGEF2 (1–619), wild type SKIP→SKNN (I→N; P→N in the SxIP motif; residue numbers not printed)”, for which the percent of parent (% relative to WT) was 78.

Regarding “mNeongreen RhoGEF2 (1–619), wild type 7E (seven serines proximal to the SKIP motif changed to E; residue numbers not printed)”, the percent of parent (% relative to WT) was 56.
